We go through four molecules from PMC4399878, “Probing the Run-On Oligomer of Activated SgrAI Bound to DNA”.

One data set deals with T1, SgrAI S56E (UniProt Q9F6L0 1-339, S56E).
T1 sequence: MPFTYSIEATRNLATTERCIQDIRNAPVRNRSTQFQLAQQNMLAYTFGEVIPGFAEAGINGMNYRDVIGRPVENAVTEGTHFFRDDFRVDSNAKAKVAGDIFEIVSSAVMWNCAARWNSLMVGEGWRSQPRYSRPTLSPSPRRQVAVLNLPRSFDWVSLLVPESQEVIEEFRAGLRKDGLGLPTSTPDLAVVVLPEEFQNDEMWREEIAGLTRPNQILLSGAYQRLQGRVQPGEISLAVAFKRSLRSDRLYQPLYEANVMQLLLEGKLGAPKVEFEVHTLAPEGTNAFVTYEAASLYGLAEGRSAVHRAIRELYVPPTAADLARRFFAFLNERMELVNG
Nature of the data set: EMSA; 10 mM Ca2+; 20 mM Tris-HOAc pH 8.0 (RT), 50 mM KOAc, 10 mM Ca(OAc)2 (or Mg(OAc)2), 1 mM DTT, 4 C for anisotropy and gel run; 10% glycerol for EMSA and R131A/R134A, none for wild type with 40-mers. To be noted: protein: recombinant; chain copies: 2; label: 5' 32P (S56E, A57E) or 5' fluorescein on top strand (R131A, R134A). A general note: Mobility shift assays separate free from complexed probe on a gel.

A further data set has as its target T2, SgrAI A57E (UniProt Q9F6L0 1-339, A57E).
T2 sequence: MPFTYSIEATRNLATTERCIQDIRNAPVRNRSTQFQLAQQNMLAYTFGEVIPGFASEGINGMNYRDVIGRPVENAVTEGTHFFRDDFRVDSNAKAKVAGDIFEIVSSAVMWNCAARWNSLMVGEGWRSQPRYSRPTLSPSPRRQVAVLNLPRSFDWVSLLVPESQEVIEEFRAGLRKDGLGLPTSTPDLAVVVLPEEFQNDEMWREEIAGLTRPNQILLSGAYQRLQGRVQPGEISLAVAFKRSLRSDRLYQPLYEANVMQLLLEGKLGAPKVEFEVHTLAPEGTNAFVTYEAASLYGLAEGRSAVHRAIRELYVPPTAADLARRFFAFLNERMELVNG
The description is as above. The following applies: protein: recombinant; chain copies: 2; label: 5' 32P (S56E, A57E) or 5' fluorescein on top strand (R131A, R134A).

The target in the next data set is T3, SgrAI R134A (UniProt Q9F6L0 1-339, R134A).
T3 sequence: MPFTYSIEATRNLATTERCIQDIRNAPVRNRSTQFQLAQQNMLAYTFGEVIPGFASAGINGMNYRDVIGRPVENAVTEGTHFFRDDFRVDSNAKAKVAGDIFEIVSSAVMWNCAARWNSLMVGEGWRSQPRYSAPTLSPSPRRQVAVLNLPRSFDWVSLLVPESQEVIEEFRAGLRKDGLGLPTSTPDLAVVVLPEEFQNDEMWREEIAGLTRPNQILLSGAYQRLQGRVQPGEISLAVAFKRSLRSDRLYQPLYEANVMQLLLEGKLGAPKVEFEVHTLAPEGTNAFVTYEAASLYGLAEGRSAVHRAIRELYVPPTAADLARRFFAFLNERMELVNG
Nature of the data set: fluorescence anisotropy; 10 mM Ca2+; 20 mM Tris-HOAc pH 8.0 (RT), 50 mM KOAc, 10 mM Ca(OAc)2 (or Mg(OAc)2), 1 mM DTT, 4 C for anisotropy and gel run; 10% glycerol for EMSA and R131A/R134A, none for wild type with 40-mers. To be noted: protein: recombinant; chain copies: 2; label: 5' 32P (S56E, A57E) or 5' fluorescein on top strand (R131A, R134A). (Fluorescence polarisation rises when a labelled molecule tumbles more slowly, as on binding a larger partner.)

In the next data set the target is T4, SgrAI R131A (UniProt Q9F6L0 1-339, R131A).
T4 sequence: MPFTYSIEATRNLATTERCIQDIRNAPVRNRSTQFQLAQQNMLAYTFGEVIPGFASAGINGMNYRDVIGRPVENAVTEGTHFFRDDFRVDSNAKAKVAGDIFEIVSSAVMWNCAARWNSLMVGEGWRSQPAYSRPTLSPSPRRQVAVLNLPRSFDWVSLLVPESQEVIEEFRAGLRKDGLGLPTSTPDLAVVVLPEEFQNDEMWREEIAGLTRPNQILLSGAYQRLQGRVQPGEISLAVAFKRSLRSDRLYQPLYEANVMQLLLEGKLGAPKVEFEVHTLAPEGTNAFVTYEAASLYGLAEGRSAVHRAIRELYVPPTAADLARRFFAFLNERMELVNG
The description is as above. To be noted: protein: recombinant; chain copies: 2; label: 5' 32P (S56E, A57E) or 5' fluorescein on top strand (R131A, R134A).

Data set [1] has as its target T5, SgrAI wild type (UniProt Q9F6L0 1-339).
T5 sequence: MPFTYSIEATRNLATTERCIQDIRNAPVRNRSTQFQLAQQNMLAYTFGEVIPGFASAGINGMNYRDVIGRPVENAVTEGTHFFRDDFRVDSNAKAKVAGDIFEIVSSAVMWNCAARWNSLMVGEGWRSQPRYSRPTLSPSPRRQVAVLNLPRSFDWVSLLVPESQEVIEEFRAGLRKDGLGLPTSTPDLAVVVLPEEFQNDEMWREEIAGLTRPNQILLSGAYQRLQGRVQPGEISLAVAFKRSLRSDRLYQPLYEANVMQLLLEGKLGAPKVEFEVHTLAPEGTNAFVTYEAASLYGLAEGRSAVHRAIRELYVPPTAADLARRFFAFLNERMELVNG
The data set is described as above. The following applies: protein: recombinant, tags: none (untagged wild type; a C-terminal 6xHis version was also made), chain copies: 2.

Data set [2] concerns the target T5, SgrAI wild type. The experiment in a line: fluorescence anisotropy; 10 mM Mg2+; 20 mM Tris-HOAc pH 8.0 (RT), 50 mM KOAc, 10 mM Ca(OAc)2 (or Mg(OAc)2), 1 mM DTT, 4 C for anisotropy and gel run; 10% glycerol for EMSA and R131A/R134A, none for wild type with 40-mers. The following applies: protein: recombinant; tags: none (untagged wild type; a C-terminal 6xHis version was also made); chain copies: 2; label: 5' Hex (Methods).

Setting [3] is: label: 5' fluorescein on top strand.

B1: PC DNA (dsDNA)
DNA 1: GATGCGTGGGTCTTCACA
DNA 2: CCGGTGTGAAGACCCACGCATC
With B1, the Kd (in general, the concentration at which binding is half-saturated) with SgrAI S56E is 0.26 ± 0.02 nM; with SgrAI A57E, 5 ± 2 nM; with SgrAI R134A it was 13 ± 6 nM; with SgrAI R131A it was 60 ± 20 nM.

B2: 40-2A (dsDNA)
DNA 1: GATGCGTGGGTCTTCACACCGGGGGTCTGCTCAAAATGAG
DNA 2: CTCATTTTGAGCAGACCCCCGGTGTGAAGACCCACGCATC
Regarding B2, the Kd with SgrAI wild type [1] (setting [3]) was determined as 27 ± 2 nM.

B3: 40-NCTA (40-NC-TA) (dsDNA)
DNA 1: GATGCGTGGGTCTTCACTCCGGAGGTCTGCTCAAAATGAG
DNA 2: CTCATTTTGAGCAGACCTCCGGAGTGAAGACCCACGCATC
Turning to B3, the Kd in the data set with SgrAI wild type [2] came out at 2.8 ± 0.5 nM; with SgrAI wild type [1] (label: 5' Hex (Methods)), 0.5 ± 0.1 nM.

B4: 40-2B (dsDNA)
DNA 1: GATGCGTGGGTCTTCACACCGGTCGTCTGCTCAAAATGAG
DNA 2: CTCATTTTGAGCAGACGACCGGTGTGAAGACCCACGCATC
As for B4, the Kd with SgrAI wild type [1] (setting [3]) came out at 17 ± 3 nM.
